Test results as given in publication PMC4516285 (Biochemistry, 2015).

T1: wild type Escherichia coli CheY (E. coli, UniProt P0AE67 2-129)
T1 sequence: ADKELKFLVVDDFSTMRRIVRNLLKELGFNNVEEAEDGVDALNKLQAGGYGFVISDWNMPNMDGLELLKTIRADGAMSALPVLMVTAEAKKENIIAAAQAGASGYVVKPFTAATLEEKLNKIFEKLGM


Experiments:
[1] = target: FliM 1-16 (Escherichia coli) (UniProt P06974); details: cited from earlier work
[2] = target: T1, wild type Escherichia coli CheY; test: other fluorescence titration

Row | Kd [2] [µM] | Molecule | Kd [1] [µM]
1 |  | CheY (from UniProt P0AE67) | 280
2 | 370 | MGDSILSQAEIDALLN [FliM_(1–16) peptide (amino terminal 16 residues of E. coli FliM)] | 
